The subject of the data set is Escherichia coli TOP10. The data set is described as follows: shrunken log2 fold change of peptide-encoding DNA abundance (4.5 h post-induction vs induction); higher = less antimicrobial activity (less host growth inhibition). Conditions: time post-induction: 4.5 h; library: site-saturation at positions 5, 18, 19, 20.
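Further: peptides expressed intracellularly from a pBAD plasmid library in pooled LB shake-flask culture, induced with 0.3% L-arabinose, DNA abundance read by NGS, three biological replicates, DESeq2 with apeglm shrinkage.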

With RRIRHRPPRLPRPRPRPEIRPRP, the “shrunken log2 fold change” value was 0.0924.
Take RRIRDRPPRLPRPRPRPIFPPRP: the “shrunken log2 fold change” value amounted to 0.19.
As for RRIRDRPPRLPRPRPRPEQSPRP, the figure is 0.964.
For RRIRNRPPRLPRPRPRPPPFPRP, the “shrunken log2 fold change” value came to 0.47.
For RRIRKRPPRLPRPRPRPQHEPRP, the “shrunken log2 fold change” value turned out to be 0.198.
For the sequence RRIRWRPPRLPRPRPRPVRSPRP, the “shrunken log2 fold change” value was found to be 0.239.
Consider RRIRYRPPRLPRPRPRPGWSPRP, for which the “shrunken log2 fold change” value was -0.135.
As to RRIRARPPRLPRPRPRPPEEPRP, the “shrunken log2 fold change” value stood at 1.73.
On to RRIRARPPRLPRPRPRPTGYPRP, for which the “shrunken log2 fold change” value worked out at 0.191.
For RRIRTRPPRLPRPRPRPIIGPRP, the “shrunken log2 fold change” value is 0.0211.
Turning to RRIRGRPPRLPRPRPRPHDFPRP, the “shrunken log2 fold change” value is -0.0983.
With RRIRLRPPRLPRPRPRPSWEPRP, the “shrunken log2 fold change” value worked out at 0.0244.
For RRIRFRPPRLPRPRPRPHNRPRP, the “shrunken log2 fold change” value turned out to be 0.0584.
As for RRIRHRPPRLPRPRPRPPEKPRP, the “shrunken log2 fold change” value was -0.00804.
Consider RRIRQRPPRLPRPRPRPLNNPRP, for which the “shrunken log2 fold change” value is -0.586.
Consider RRIRCRPPRLPRPRPRPPYRPRP, for which the “shrunken log2 fold change” value is -0.0439.
As for RRIRYRPPRLPRPRPRPGWWPRP, the figure is 0.316.
As for RRIRIRPPRLPRPRPRPTDEPRP, the figure is 0.125.
As for RRIRTRPPRLPRPRPRPKCVPRP, the “shrunken log2 fold change” value is -0.138.
With RRIRMRPPRLPRPRPRPSIIPRP, the “shrunken log2 fold change” value is 0.0973.
Regarding RRIRVRPPRLPRPRPRPTNIPRP, the “shrunken log2 fold change” value is -0.783.
Under RRIRGRPPRLPRPRPRPIKRPRP stands 0.171; under RRIRYRPPRLPRPRPRPTDYPRP, -0.746.
On to RRIRFRPPRLPRPRPRPLSMPRP, for which the “shrunken log2 fold change” value was -0.363.
Under RRIRKRPPRLPRPRPRPVSAPRP stands 0.887; under RRIRFRPPRLPRPRPRPNIDPRP, -0.463.
As for RRIRSRPPRLPRPRPRPFHFPRP, the figure is -0.308.
As to RRIRLRPPRLPRPRPRPDWNPRP, the “shrunken log2 fold change” value was -0.689.
Regarding RRIRLRPPRLPRPRPRPSAIPRP, the “shrunken log2 fold change” value was -0.189.
Under RRIRERPPRLPRPRPRPWCWPRP stands 0.315; under RRIRQRPPRLPRPRPRPTYNPRP, -0.591; under RRIRKRPPRLPRPRPRPAAPPRP, 1.6.
For the sequence RRIRHRPPRLPRPRPRPVFQPRP, the “shrunken log2 fold change” value is -0.0932.
In the case of RRIRARPPRLPRPRPRPGAKPRP, the “shrunken log2 fold change” value is 0.623.
Under RRIRFRPPRLPRPRPRPPVHPRP stands 0.119; under RRIRARPPRLPRPRPRPGVNPRP, -0.238.
As for RRIRWRPPRLPRPRPRPCVRPRP, the “shrunken log2 fold change” value turned out to be 0.0233.
As for RRIRRRPPRLPRPRPRPKIMPRP, the figure is -0.0825; as for RRIRWRPPRLPRPRPRPCPEPRP, 0.0311; as for RRIRPRPPRLPRPRPRPRNWPRP, 0.195.
Regarding RRIRFRPPRLPRPRPRPVAQPRP, the “shrunken log2 fold change” value was found to be 0.0899.
As for RRIRDRPPRLPRPRPRPIARPRP, the “shrunken log2 fold change” value amounted to 0.199.
As to RRIRLRPPRLPRPRPRPPIRPRP, the “shrunken log2 fold change” value came out at 0.296.
As for RRIRYRPPRLPRPRPRPIQVPRP, the figure is -0.0153; as for RRIRWRPPRLPRPRPRPSDKPRP, -0.246; as for RRIRFRPPRLPRPRPRPRPFPRP, 0.401.
Under RRIRSRPPRLPRPRPRPTWGPRP stands 0.134.
Under RRIRKRPPRLPRPRPRPEYTPRP stands 0.0243.
As for RRIRQRPPRLPRPRPRPTYAPRP, the “shrunken log2 fold change” value was -0.0832.
As for RRIRDRPPRLPRPRPRPFQYPRP, the “shrunken log2 fold change” value is 0.0242.
